T1: EsCas13d, nuclease-dead (Eubacterium siraeum, UniProt B0MS50, R295A;H300A;R849A;H854A)
T1 sequence: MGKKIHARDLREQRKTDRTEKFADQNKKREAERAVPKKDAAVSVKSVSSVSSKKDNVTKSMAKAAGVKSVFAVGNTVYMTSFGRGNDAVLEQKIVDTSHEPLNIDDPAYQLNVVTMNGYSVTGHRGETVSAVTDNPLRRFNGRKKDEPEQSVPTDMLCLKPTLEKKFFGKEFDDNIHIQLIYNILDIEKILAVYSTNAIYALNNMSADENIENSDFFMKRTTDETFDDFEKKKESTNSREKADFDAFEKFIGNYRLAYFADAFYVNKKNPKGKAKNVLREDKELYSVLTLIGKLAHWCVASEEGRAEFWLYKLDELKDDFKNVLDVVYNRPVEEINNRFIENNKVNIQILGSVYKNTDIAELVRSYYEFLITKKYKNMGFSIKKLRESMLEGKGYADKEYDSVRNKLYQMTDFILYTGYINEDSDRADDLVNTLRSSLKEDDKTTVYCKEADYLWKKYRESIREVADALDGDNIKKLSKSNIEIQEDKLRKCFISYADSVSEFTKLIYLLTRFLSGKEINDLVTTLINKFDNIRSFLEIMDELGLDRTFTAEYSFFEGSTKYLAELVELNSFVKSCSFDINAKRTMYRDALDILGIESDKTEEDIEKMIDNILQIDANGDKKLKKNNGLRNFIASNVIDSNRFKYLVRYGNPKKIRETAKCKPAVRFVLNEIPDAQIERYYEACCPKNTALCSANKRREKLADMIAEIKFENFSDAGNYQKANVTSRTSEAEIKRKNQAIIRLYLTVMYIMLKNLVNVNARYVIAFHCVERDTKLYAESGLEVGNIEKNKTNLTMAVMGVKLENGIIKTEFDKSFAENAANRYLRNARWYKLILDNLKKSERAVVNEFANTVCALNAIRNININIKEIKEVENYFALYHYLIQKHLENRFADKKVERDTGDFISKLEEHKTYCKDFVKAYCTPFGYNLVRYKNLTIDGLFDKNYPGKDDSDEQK

B1: crRNA-1 (D950N) target (mixed)
RNA 1: CACCCGUGCAAAAUUGCAGGGGUCUAAAACUUUUGGUUGACCACAUCUUGAA
RNA 2: UUGGAAAACUUCAAAAUGUGGUCAACCAAAAUGCACAAGC
B2: crRNA-2 (D950N) target (mixed)
RNA 1: CACCCGUGCAAAAUUGCAGGGGUCUAAAACCUUGAAGUUUUCCAAGUGCACU
RNA 2: UCCACAGCAAGUGCACUUGGAAAACUUCAAAAUGUGGUCA

Target: T1, EsCas13d, nuclease-dead
Experiment: BLI; crRNA (strand 1, pre-loaded); Mg2+; 40 mM Tris-HCl pH 7.5, 150 mM NaCl, 6 mM MgCl2, 1 mM DTT, 0.1% Tween-20, 0.2 mg/ml BSA; temperature not stated
Settings: tags: His6-TwinStrep-SUMO cleaved; label: 3' biotin on strand 2

Row | Binder | Kd [nM]
1 | B1 | 15
2 | B2 | 2.9

Source: article PMC10786891, “Massively parallel profiling of RNA-targeting CRISPR-Cas13d”
